Laboratory results taken from patent US6720475, “Nucleic acid sequence encoding FLP recombinase” (Pioneer Hi-Bred International, Inc.).

Experiments:
[1] = target: T1, FLPy (FLP recombinase from native yeast gene) (Saccharomyces cerevisiae, UniProt P03870 SEQ:1-423); experiment: cell_activity; ED50 for excision between genomic FRT sites in BMS cells, PHP5095 plasmid dose; details: tags: expressed in maize cells; chain copies: 4
T1 sequence: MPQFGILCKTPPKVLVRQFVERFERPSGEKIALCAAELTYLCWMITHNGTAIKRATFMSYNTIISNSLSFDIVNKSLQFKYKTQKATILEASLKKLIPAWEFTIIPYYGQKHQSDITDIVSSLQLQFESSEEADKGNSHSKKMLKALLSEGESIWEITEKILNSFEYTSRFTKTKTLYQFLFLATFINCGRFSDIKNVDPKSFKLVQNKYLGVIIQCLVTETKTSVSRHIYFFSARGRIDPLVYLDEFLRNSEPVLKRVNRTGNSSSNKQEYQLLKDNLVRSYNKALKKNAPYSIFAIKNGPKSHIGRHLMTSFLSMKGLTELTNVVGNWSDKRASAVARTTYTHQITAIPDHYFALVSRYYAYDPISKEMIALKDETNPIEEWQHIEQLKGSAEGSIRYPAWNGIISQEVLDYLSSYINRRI
From the text: (§1) The moFLP gene produces higher levels of site-specific excision in maize cells than FLPy. The FRT-containing BMS transformants produced in Example IIA were transfected with varied doses of FLP-expressing vectors for site specific excision of genomic transgenic sequences using the methods described above for Example II-C. Plasmids expressing FLP, PHP5095 (FLPy), and PHP5096 (moFLP) are described above for Example I-A (see Table I-A-1). The FRT/moFLP-containing PHP5849 is described above for Example I-F (see Table I-F-1). Control plasmids used were PHP3703 (non-FLP negative control; with UBI promoter and intron, wheat germ agglutinin structural gene, and pinII 3' end), PHP3953 (positive control; with UBI promoter and intron, GUS structural gene, and pinII 3' end), and pUC18 (with no plant expression cassette used as carrier DNA to keep the total DNA load constant). Cell culture methods, DNA bombardment methods, and assay methods were those described above for Example I. The experimental design is shown below in Table II-D-1.
(§2) GUS activity indicating FLP-mediated excision of genomic DNA in cells transfected with FLYy or moFLP is shown below in Tables II-D-2 and II-D-3. The $ED50$ for each FLP expression plasmid shown in Table II-D-3 was manually determined from graphing the data.

[2] = target: T2, moFLP (FLP recombinase from maize-codon-optimized gene) (Saccharomyces cerevisiae, UniProt P03870 SEQ:1-423); experiment: cell_activity; ED50 for excision between genomic FRT sites in BMS cells, PHP5096 plasmid dose; details: chain copies: 4
T2 chain: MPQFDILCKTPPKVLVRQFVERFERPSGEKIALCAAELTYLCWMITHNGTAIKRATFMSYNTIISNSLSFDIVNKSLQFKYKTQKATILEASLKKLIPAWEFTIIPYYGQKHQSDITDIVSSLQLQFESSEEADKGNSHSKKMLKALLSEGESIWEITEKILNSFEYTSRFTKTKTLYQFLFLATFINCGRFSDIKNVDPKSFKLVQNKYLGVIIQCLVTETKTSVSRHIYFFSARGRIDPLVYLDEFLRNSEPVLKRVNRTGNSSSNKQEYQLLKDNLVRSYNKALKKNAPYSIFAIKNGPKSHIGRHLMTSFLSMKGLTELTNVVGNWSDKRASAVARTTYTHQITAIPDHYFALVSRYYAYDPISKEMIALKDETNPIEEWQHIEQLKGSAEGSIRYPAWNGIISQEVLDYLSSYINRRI
From the text: as §1, §2

B1: FRT site (FRT-1) (dsDNA)
DNA 1: GAAGTTCCTATTCTCTAGAAAGTATAGGAACTTC
DNA 2: GAAGTTCCTATACTTTCTAGAGAATAGGAACTTC
EC50 [1]: 0.13 ug FLP expression vector | EC50 [2]: 0.03 ug FLP expression vector
